In patent CN101407544A:

Assays:
[1] = molecular target: T1, GP73 in human prostatic hyperplasia tissue sections (前列腺增生组织石蜡切片中的GP73) (human) (UniProt Q8NBJ4); test: immunohistochemistry on paraffin sections
T1 sequence (looked up): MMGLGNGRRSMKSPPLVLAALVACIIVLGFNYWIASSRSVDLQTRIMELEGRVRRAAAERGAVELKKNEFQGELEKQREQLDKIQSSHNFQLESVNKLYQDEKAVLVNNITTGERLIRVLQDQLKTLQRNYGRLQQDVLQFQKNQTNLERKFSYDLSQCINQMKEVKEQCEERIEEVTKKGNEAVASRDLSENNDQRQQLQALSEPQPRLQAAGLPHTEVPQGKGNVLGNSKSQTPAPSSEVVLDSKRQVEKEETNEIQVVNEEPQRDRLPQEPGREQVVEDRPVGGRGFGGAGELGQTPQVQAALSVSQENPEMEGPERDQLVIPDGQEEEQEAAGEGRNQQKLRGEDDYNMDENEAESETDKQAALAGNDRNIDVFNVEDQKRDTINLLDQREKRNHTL

[2] = molecular target: T2, 重组人GP73蛋白 His-GP73 (recombinant human Golgi protein 73 fragment with His tag, expressed in E. coli from pET-28-a(+)) (human) (UniProt Q8NBJ4); test: double antibody sandwich ELISA: 6A2 (1 μg/ml) capture, His-GP73 standard, rabbit anti-GP73 serum (1:1000) detection
T2 sequence (looked up): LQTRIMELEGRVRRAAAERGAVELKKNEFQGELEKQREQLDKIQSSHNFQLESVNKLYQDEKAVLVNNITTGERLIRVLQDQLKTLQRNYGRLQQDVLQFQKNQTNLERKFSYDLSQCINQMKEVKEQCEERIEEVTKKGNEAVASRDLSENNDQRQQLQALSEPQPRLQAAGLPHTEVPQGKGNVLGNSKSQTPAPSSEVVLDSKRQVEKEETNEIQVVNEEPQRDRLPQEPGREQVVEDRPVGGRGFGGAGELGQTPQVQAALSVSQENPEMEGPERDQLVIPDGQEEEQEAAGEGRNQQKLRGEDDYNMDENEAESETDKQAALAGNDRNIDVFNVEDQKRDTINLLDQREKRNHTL

B1: 抗GP73单克隆抗体6A2 (anti-GP73 mAb) (antibody, part only; not given: light chain variable region, V domains shown, part only)
VH: DFNIKDTYMHWMKQRPEQGLEWIGRIDPANGNTKYDPKFQGKATITTDTSSNTAYLQLSSLTSEDTAVYYCAREDYGNLWYFDV
效价 (titer in immunohistochemistry) (titer (1:x dilution)) [1]: 1000 | 最低检测限 (lowest detection limit of the sandwich ELISA) [2]: 0.25 ng/mL
